Test results reported in the supplement of paper PMC10567573.

B1: VPS39 (parent)
chain: ITEEKVCMVCKKKIGNSAFARYPN
B2: CLCN6 (parent)
chain: ILRSQLVTLLVRGVCYSESQSSAS

Variants of: B1
Assay: protein stability index of a GFP-peptide fusion (GPS, HEK-293T) (PSI 1-6); higher = more stable
Conditions: c terminus: a fixed tail appended
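Note: lentivirally expressed fusions sorted by FACS into six bins by GFP to DsRed ratio, PSI derived from sequencing read proportions per bin multiplied by bin number.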

Protein stability index of substitutions, site by site:
G15: D 2.46, M 2.23, A 1.39, P 2.45, T 2.81, K 2.55, S 2.54, V 2.86, I 2.8, E 2.78, R 2.34, Y 2, H 2.02, F 2.35, C 2.98, L 2.31, Q 2.99, N 2.37, W 2.35
V9: M 2.69, G 3.1, W 2.34, P 3.59, R 3.61, N 3.33, Y 1.99, C 2.67, S 3.35, T 2.51, Q 3.4, A 3.05, I 2.06, D 2.71, E 3.53, H 2.87, F 2.27, L 2.83, K 3.58
T2: N 2.79, R 2.55, S 2.27, Q 3.19, A 2.94, F 2.9, L 3.59, V 2.67, I 2.43, P 2.53, C 2.32, Y 2.34, W 1.77, K 2.42, G 2.15, H 3.16, E 2.72, M 2.02, D 2.92
K12: M 1.64, S 2.36, N 2.8, D 2.63, G 1.97, W 2.18, C 2.93, Q 2.25, V 1.74, E 2.46, R 1.83, P 2.25, L 1.3, A 2.28, H 2.28, F 1.68, T 1.77, Y 1.88
K11: C 1.42, Q 2.29, Y 2.12, T 2.2, M 1.66, F 1.54, W 1.69, P 2.76, D 3.21, G 2.58, A 2.19, N 1.81, S 1.7, H 1.74, V 2.23, I 1.85, E 2.75, R 1.98, L 1.42
E3: V 1.82, W 1.96, S 1.97, T 1.97, R 3.83, M 1.39, I 3, G 2.13, A 1.97, Y 2.03, D 2.55, K 1.44, N 1.84, L 1.91, P 2.25, Q 2.53, C 1.26, H 1.94, F 1.51
E4: P 2.39, L 2.09, T 1.83, M 2.57, I 2.06, C 1.57, V 1.91, S 1.74, K 1.86, Y 2.15, F 1.77, G 1.5, R 2.15, H 1.82, A 1.47, D 2.94, N 2.12, Q 2.38
K13: I 2.02, W 1.52, R 2.29, D 2.73, N 2.33, M 2.07, Y 2.11, T 1.83, G 1.35, A 1.7, V 1.98, H 2.01, E 3.04, S 2.36, Q 2.6, P 2.27, C 2.01, F 2.28, L 1.64
I1: T 2.88, L 2.5, C 2.24, Y 2.49, M 2.2, P 2.35, S 2.59, H 2.59, Q 2.91, A 2.97, R 2.13, V 2.95, G 3.1, E 3.18, D 3.39, W 2.33, N 2.78, K 2.6, F 2.67
C7: D 4.19, I 2.2, V 3.31, G 2.46, W 2.02, L 2.77, S 2.98, H 3.47, P 3.64, A 2.81, F 2.78, E 4.24, T 3.18, K 3.1, Q 3.31, Y 2.53, M 2.79, R 2.54, N 4.1
N16: D 2.62, R 2.29, M 1.54, C 2.8, P 2.81, A 2.42, E 2.48, I 2.02, Q 3.01, G 3.01, H 2.48, S 2.35, L 2.05, K 2.34, F 1.58
K5: T 2.09, Y 1.55, N 3.66, V 1.98, L 2.06, D 2.65, S 2.53, W 2.28, C 2.04, P 2.87, I 1.78, Q 2.42, R 1.65, E 2.62, H 2.17, G 2.33, F 2.21, M 2.23, A 2.63
C10: S 4.14, M 2.94, W 2.59, K 2.77, E 4.15, V 2.84, A 3.13, D 3.67, N 4.14, P 3.97, G 4.21, F 2.04, I 2.45, Y 2.64, R 3.96, H 3.32, L 2.38
M8: H 2.31, E 2.85, C 2.44, I 2.6, P 2.64, N 2.92, R 2.39, Y 1.94, A 2.91, Q 3.22, W 1.51, F 3.02, V 3.23, K 3.11, G 2.64, T 2.43, L 2.65, S 3.29, D 2.95
I14: H 4.23, A 2.56, W 2.1, C 2.5, E 2.85, D 3.48, S 3.36, T 3.06, R 2.67, V 1.79, K 2.49, Y 2.66, Q 2.14, F 2.87, L 2.41, M 3, N 2.38, P 2.64, G 2.3
V6: A 1.83, H 2.65, Y 2.52, Q 2.48, C 1.95, I 3.18, M 2.81, F 2.39, N 3.42, S 3.06, L 2.21, W 1.62, T 2.3, D 3.48, R 2.44, K 2.95, E 2.8, G 1.38, P 2.88

Variants of: B2
Assay: as above
Conditions: c terminus: a fixed tail appended

Protein stability index: each site, then its substitutions
S24: D 2.68, M 4.04, F 3.24, T 2.7, K 2.49, P 3.9, Q 1.85, R 2.78, V 2.87, N 2.4, W 2.9, G 3.21
A23: C 2.96, T 2, V 1.81, S 2.38, M 2.75, W 4.14, Q 3.96, K 2.29, I 4.16, P 3.09, Y 3, H 2.38, F 3.27, D 4.03, N 4.11, E 2.41
S22: T 2.11, P 2.17, R 3.39, N 1.92, M 3.01, Y 3.28, K 3.18, I 2.29, V 2.66, Q 3.86
